Results reported in publication PMC11042539 (Journal of the American Chemical Society, 2011).
Read-outs that look alike come from different tables or passages of the source.

What was measured:
[1] = biological target: Ag85c (Mycobacterium tuberculosis, UniProt P9WQN9); assay: biochemical
[2] = system: OC[C@H]1O[C@H](O[C@H]2O[C@H](CO)[C@@H](O)[C@H](O)[C@H]2O)[C@H](O)[C@@H](O)[C@@H]1O; assay: purified protein

Sequence of Ag85c (P9WQN9 46-340 limits assumed): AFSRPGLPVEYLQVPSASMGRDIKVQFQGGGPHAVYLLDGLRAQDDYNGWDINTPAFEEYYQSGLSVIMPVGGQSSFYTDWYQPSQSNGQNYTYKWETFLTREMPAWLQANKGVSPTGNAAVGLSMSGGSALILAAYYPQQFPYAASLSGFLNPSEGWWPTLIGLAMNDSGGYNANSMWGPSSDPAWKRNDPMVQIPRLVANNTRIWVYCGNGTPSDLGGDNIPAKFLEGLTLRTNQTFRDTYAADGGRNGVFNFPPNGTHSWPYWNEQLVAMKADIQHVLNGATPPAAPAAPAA

Compound | Ki [1] [µM] | Km [2] [µM] | kcat [2] [s⁻¹] | kcat/Km [2] [M⁻¹ s⁻¹] | Km ([2]; Ser-His-Asp catalytic triad at the trehalose binding site) [µM]
CCCCCC(=O)OC[C@H]1O[C@H](O[C@H]2O[C@H](COC(=O)CCCCC)[C@@H](O)[C@H](O)[C@H]2O)[C@H](O)[C@@H](O)[C@@H]1O [2b, 6,6’-di-hexanoyltrehalose] | 355 ± 106 |  |  |  | 
Ag85b (Mycobacterium tuberculosis H37Rv) |  | 112 | 0.003 | 30 | 
Ag85c (Mycobacterium tuberculosis H37Rv) |  |  |  |  | 16.9 ± 5.3
Ag85a (Mycobacterium tuberculosis H37Rv) |  | 175 | 0.014 | 82 | 
